In patent publication US7169889B1, “Insulin prodrugs hydrolyzable in vivo to yield peglylated insulin” (priority 1999, dated 2007):
Like-named read-outs stand apart in the source and are kept apart here.

What was measured:
male CF-1 mice [1] = details: bovine insulin standard; assumed potency used for calculations; cited from earlier work
pancreatectomized dogs = test: Oral activity in pancreatectomized diabetic dogs (plasma glucose and insulin); type: in vivo; details: for Dmax: microemulsion, N = 2
Experimental: Two dogs were used for each compound. Compounds are formulated in water in oil microemulsion and evaluated at a dose of 1-2 mg/kg. Twenty milliliters of the formulation was administered orally to each dog and the formulations were chased with 20 ml of water. Plasma glucose and insulin levels were monitored at different time intervals.

male CF-1 mice [2] = test: Mouse blood glucose assay (potency evaluation); type: in vivo; details: for Potency: subcutaneous injection, blood glucose 30 minutes post-dose, calculated relative to bovine insulin standard curve
Experimental: Six paired dose groups of 5 male CF-1 mice (˜25 g unfasted) received subcutaneous injections of either bovine insulin or modified insulin. Pre- and post-experimental baselines were established with two vehicle groups. An additional 25 μg/kg insulin dose group served as the internal control. Mice were terminally bled 30 minutes post-dose and blood glucose was measured with a glucometer (ONE TOUCH®). The biological potency of the modified insulin was then calculated relative to a bovine insulin standard curve.

Substance: Bovine insulin: bovine insulin standard, assumed potency 27.5 IU/mg
- Potency (male CF-1 mice [1]): 27.5 IU/mg

Substance: Galactosamine-PEG14-insulin conjugate
- Dmax (pancreatectomized dogs; oral, dose 2 mg/kg): 52%

Substance: Insulin PEG3 Methyl Ether: insulin mono-conjugated with methyl triethylene glycol
- in vivo biological activity (potency assay), in words (male CF-1 mice [2]; mouse blood glucose assay, Table 2): best result
- Potency (male CF-1 mice [2]): 43.6 IU/mg

Substance: Insulin PEG9 Hexanoate: insulin mono-conjugated with hydrolyzable PEG9 hexanoate ester oligomer
- Potency (male CF-1 mice [2]): 21.3 IU/mg

Substance: Insulin PEG9 Oleate: insulin mono-conjugated with hydrolyzable PEG9 oleate ester oligomer
- Potency (male CF-1 mice [2]): 19.0 IU/mg

Substance: Insulin PEG9 Stearate: insulin mono-conjugated with hydrolyzable PEG9 stearate ester oligomer
- Potency (male CF-1 mice [2]): 15.3 IU/mg

Substance: Insulin PEG10 Oleyl Ether: nonhydrolyzable insulin mono-conjugate with PEG10 oleyl ether oligomer
- Potency (male CF-1 mice [2]): 0.0 IU/mg

Substance: PEG3-insulin: methyl triethylene glycol insulin conjugates formulated in microemulsion
- Cmax (pancreatectomized dogs; dog, in vivo, po, 2 mg/kg): 181 μU/ml
- glucose reduction, in words (pancreatectomized dogs; oral, formulated in microemulsion, pancreatectomized dogs): good glucose reduction
- Dmax (pancreatectomized dogs; oral, dose 2 mg/kg): 62%

Substance: PEG3-oleate-insulin conjugate: insulin conjugated with hydrolyzable triethylene glycol oleate oligomer, in microemulsion
- Dmax (pancreatectomized dogs; oral, dose 1 mg/kg): 49%
